Target: the molecule itself
Assay: cryo-EM structure

Protein	stoichiometry N
Sf6 portal protein (gp3) (natural protein, bacteriophage Sf6, UniProt Q716H2 1-708, looked up) MAETLEKKHERIMLRFDRAYSPQKEVREKCIEATRFARVPGGQWEGATAAGTKLDEQFEKYPKFEINKVATELNRIIAEYRNNRITVKFRPGDREASEELANKLNGLFRADYEETDGGEACDNAFDDAATGGFGCFRLTSMLVNEYDPMDDRQRIAIEPIYDPSRSVWFDPDAKKYDKSDALWAFCMYSLSPEKYEAEYGKKPPTSLDVTSMTSWEYNWFGADVIYIAKYYEVRKESVDVISYRHPITGEIATYDSDQVEDIEDELAIAGFHEVARRSVKRRRVYVSVVDGDGFLEKPRRIPGEHIPLIPVYGKRWFIDDIERVEGHIAKAMDPQRLYNLQVSMLADTAAQDPGQIPIVGMEQIRGLEKHWEARNKKRPAFLPLREVRDKSGNIIAGATPAGYTQPAVMNQALAALLQQTSADIQEVTGGSQAMQQMPSNIAQETVNNLMNRADMASFIYLDNMAKSLKRAGEVWLSMAREVYGSEREVRIVNEDGSDDIAVLSAQVVDRQTGAVVALNDLSVGRYDVTVDVGPSYTARRDATVSVLTNVLSSMLPTDPMRPAIQGIILDNIDGEGLDDFKEYNRNQLLISGIAKPRNEKEQQIVQQAQMAAQSQPNPEMVLAQAQMVAAQAEAQKATNETAQTQIKAFTAQQDAMESQANTVYKLAQARNIDDKAVMEAIRLLKDVAESQQQQFQSPPQSPADLMPS	12
Sf6 tail needle (gp9) (natural protein, bacteriophage Sf6, UniProt Q716G6 1-282, looked up) MADSNLNVPVIIQATRLDTSVLPRNIFSQSYLLYVIAQGTDVGNVANKANEAGQGAYDAQVRNDEQDVILADHEQRISAAEATLVNHEERIRQAESTLQDHETRIAQNESDISSLDTRVQSLESQVSDHETRIDALEYATTRKKSEVVYSGVSVTIPTAPTNLVSLLKTLTPSSGTLAPFFDTVNNKMVVFNENKTLFFKLSIVGTWPSGTANRSMQLTFSGSVPDTLVSSRNSATTTDNILLATFFSVDKDGFLATNGSTLTIQSNGASFTATTIKIIAEQ	3
Sf6 tail plug protein gp7 (natural protein, bacteriophage Sf6, UniProt Q716G8 1-160, looked up) MATVLTKGEIVLFALRKFAIASNASLTDVEPQSIEDGVNDLEDMMSEWMINPGDIGYAFATGDEQPLPDDESGLPRKYKHAVGYQLLLRMLSDYSLEPTPQVLSNAQRSYDALMTDTLVVPSMRRRGDFPVGQGNKYDVFTSDRYYPGDLPLIDGDIPNA	12
Sf6 tail plug protein gp8 (natural protein, bacteriophage Sf6, UniProt Q716G7 1-472, looked up) MPIQQLPLMKGVGKDFRNADYIDYLPVNMLATPKEILNSSGYLRSFPGIAKRSDVNGVSRGVEYNMAQNAVYRVCGGKLYKGESEVGDVAGSGRVSMAHGRTSQAVGVNGQLVEYRYDGTVKTVSNWPTDSGFTQYELGSVRDITRLRGRYAWSKDGTDSWFITDLEDESHPDRYSAQYRAESQPDGIIGIGTWRDFIVCFGSSTIEYFSLTGATTAGAALYVAQPSLMVQKGIAGTYCKTPFADSYAFISNPATGAPSVYIIGSGQVSPIASASIEKILRSYTADELADGVMESLRFDAHELLIIHLPRHVLVYDASSSANGPQWCVLKTGLYDDVYRAIDFIYEGNQITCGDKLESVTGKLQFDISSQYGLQQEHLLFTPLFKADNARCFDLEVESSTGVAQYADRLFLSATTDGINYGREQMIEQNEPFVYDKRVLWKRVGRIRKNVGFKLRVITKSPVTLSGAQIRIE	6

— PMC3320033 (Virology, 2012)
